Entries after “also recorded” stand apart in the source; their conditions may differ.
Columns and labels:
satellite cells = experiment: Live imaging of satellite cells on single cultured myofibers; assay type: cell-based, mouse; conditions: Wnt7a 1.5 μg/mL; compared to Veh.
Experimental: The effect of Wnt7a on satellite cell migration was measured using a time lapse imaging technique previously employed to monitor satellite cells on single muscle myofibers (Siegel et al., 2009). Wnt7a increased the mean velocity of satellite cells by 31% when compared to Veh. (FIG. 2F). […] (FIG. 2G).
Single cell imaging of cells transfected with Fzd7-YFP or YFP was performed on an LSM710 confocal microscope under 5% CO2 at 37° C. in phenol-red free DMEM (Life technologies) containing 10% FBS. Imaging of satellite cells on fibers was performed as described (Siegel et al., 2009). For live imaging of satellite cells on myofibers, Wnt7a was used at a concentration of 1.5 μg/mL. Satellite cell time-lapse microscopy was performed using a Leica DMI 5100 inverted microscope and MetaMorph 7.6.1 Software (Molecular Devices) with time points being acquired every 7 minutes in a stagetop incubator (LiveCell Imaging). ImageJ analyzed the time-lapse data to calculate the velocity, defined as distance (um)/time (hr), between time points and the average velocity of each cell was calculated. The maximum velocity is defined as the highest velocity obtained by a single cell during the tracking period.

[1] = tested on: tibialis anterior (TA) muscle; experiment: In vivo myoblast dispersal assay, tdTomato myoblasts into TA of C57BL/6 mice; design: species or system mouse; conditions: myoblasts treated 3 h, transplanted into TA of immunosuppressed C57BL/6 mice; 7 days; vs Veh.
Experimental: The duration of effects on cell migration were tested by loading intracellular stores with Wnt7a. tdTomato-expressing primary myoblasts, derived from tamoxifen treated Pax7-CreER; R26R-tdTomato mice (Yin et al., 2013a) were exposed to Wnt7a for 3 h; then the cells were washed and transplanted into the tibialis anterior (TA) muscle of immunosuppressed C57BL/6 mice (FIG. 5A). The myoblasts were co-injected with fluorescent microspheres to identify the injection site in subsequent analyses. 7 days later the mice were sacrificed and the behavior of the transplanted cells in the tissue was analyzed by scoring the number of tdTomato-expressing myofibers that were generated by fusion events with the donor cells. Transplantation of zsGreen-expressing satellite cells or myoblasts into mdx mice was performed as previously described (Bentzinger et al., 2013c). Before transplantation the cells were treated for 3 h with Wnt7a, Wnt5a, or Wnt3a (R&D Systems) at a concentration of 50 ng/mL for freshly isolated satellite cells or with 100 ng/mL for cultured cells. Myoblasts expressing tdTomato were transplanted into uninjured muscles of C57BL/6 mice that were implanted with an osmotic pump (Alzet) delivering FK506 (Sigma) at 2.5 mg/kg/day 3 days prior to the transplantations. […]

[2] = tested on: Rac1 association with Dvl2; experiment: Co-IP of Rac1 with Dvl2 in primary myoblasts; assay type: cell-based, mouse; conditions: Wnt7a stimulated (infected) primary myoblasts vs EV
Description: (§1) Wnt7a signaling in satellite cells involves Rac1. Polarized peripheral Fzd7-tdTomato colocalized with GFP-Rac1 in C2C12 cells (FIG. 3A). It was hypothesized that the small GTPase Rac1 might also be involved in Wnt7a mediated cell polarization and migration. […] Various forms of Wnt signaling require Disheveled (Dvl) proteins.
(§2) For co-immunoprecipitation (CoIP) experiments and the Rac1 activation assay, satellite cell-derived primary myoblasts were infected with retroviruses generated from empty pHAN or from pHAN-Wnt7a-HA (Kuroda et al., 2013). Dvl2 knockdown was performed with an ON-TARGETplus siRNA SMARTpool (L-040921-01, Thermo Fisher Scientific) (Wu et al., 2008) using Lipofectamine RNAiMAX (Life Technologies) according to the manufacturer's instructions. As a control for the knockdown, a non-silencing siRNA SMARTpool was used (D-001810-10, Thermo Fisher Scientific). Cell extracts were obtained through RIPA buffer lysis in the presence of a protease inhibitor cocktail (Nacalai). For CoIP of Rac1 with Dvl2, rabbit anti-Dvl2 antibody was coupled to Protein A Dynabeads (Life Technologies). Denaturing SDS-PAGE was performed using standard techniques. Rac1 activation assay was performed according to the manufacturer's instructions (Pierce).

Rac1 = Rac1 activation assay in mouse primary myoblasts; assay type: cell-based; conditions: Wnt7a overexpression (Wnt7a-HA retrovirus) vs empty virus
Description: as §1, §2

C2C12 cells = experiment: Morphological quantification of triangular polarized C2C12 cells; assay type: cell-based
Description: Cell migration is typically accompanied by cytoskeletal polarization leading to a distinctive triangular cell shape.
Fzd7-YFP was expressed in myogenic cells and induced polarization by 130% (FIG. 1A and FIG. 9A). […] The majority of Fzd7-YFP localized to small intracellular vesicles associated with the tubulin cytoskeleton in C2C12 cells (FIG. 1B). By contrast, no such localization could be observed for YFP alone (FIG. 9B).
For myoblast culture, satellite cells were FACS purified as described (Bentzinger et al., 2013c) and plated on Collagen-coated dishes (BD Biosciences) in Ham's F10 medium supplemented with 20% FBS and 5 ng/mL of basic FGF (Millipore). C2C12 cells and human myoblasts were cultured as previously described (von Maltzahn et al., 2012). For in vitro morphology quantifications, Wnt7a was used at a concentration of 50 ng/mL.

B1: Wnt7a: non-canonical Wnt polypeptide (R&D Systems) used to treat or load myogenic cells (protein, UniProt O00755 32-349, looked up)
Protein Wnt-7a: LGASIICNKIPGLAPRQRAICQSRPDAIIVIGEGSQMGLDECQFQFRNGRWNCSALGERTVFGKELKVGSREAAFTYAIIAAGVAHAITAACTQGNLSDCGCDKEKQGQYHRDEGWKWGGCSADIRYGIGFAKVFVDAREIKQNARTLMNLHNNEAGRKILEENMKLECKCHGVSGSCTTKTCWTTLPQFRELGYVLKDKYNEAVHVEPVRASRNKRPTFLKIKKPLSYRKPMDTDLVYIEKSPNYCEEDPVTGSVGTQGRACNKTAPQASGCDLMCCGRGYNTHQYARVWQCNCKFHWCCYVKCNTCSERTEMYTCK
Satellite cells
  higher directional persistence: 36%
  increase in mean velocity of satellite cells: 31%
  mean maximal velocity: not significantly different; also recorded: not substantially different
[1]
  increase in number of tdTomato-expressing myofibers: 119%
[2]
  Rac1 association with Dvl2: increased Rac1 association with Dvl2
Rac1
  activation of Rac1: significantly increased the activation of Rac1
C2C12 cells; C2C12 myoblasts, vs vehicle treated cells expressing YFP, Wnt7a 50 ng/mL
  increase in the abundance of triangular polarized cells: 111%
C2C12 cells; Fzd7-YFP expressing C2C12 cells treated with Wnt7a
  increase in cell polarization: 167%

— patent publication US20170087188A1, “WNT INDUCED MOTILITY AND ENHANCED ENGRAFTMENT OF CELLS” (OTTAWA HOSPITAL RESEARCH INSTITUTE, priority 2014, published 2017)
